In article doi:10.1101/2024.12.18.629111 (bioRxiv, 2024):
Changes are numbered by the printed parent chain.

T1: CBP-Upf1-CH-HD I693R (S. cerevisiae, UniProt P30771 54-851, I693R)
T1 sequence (looked up): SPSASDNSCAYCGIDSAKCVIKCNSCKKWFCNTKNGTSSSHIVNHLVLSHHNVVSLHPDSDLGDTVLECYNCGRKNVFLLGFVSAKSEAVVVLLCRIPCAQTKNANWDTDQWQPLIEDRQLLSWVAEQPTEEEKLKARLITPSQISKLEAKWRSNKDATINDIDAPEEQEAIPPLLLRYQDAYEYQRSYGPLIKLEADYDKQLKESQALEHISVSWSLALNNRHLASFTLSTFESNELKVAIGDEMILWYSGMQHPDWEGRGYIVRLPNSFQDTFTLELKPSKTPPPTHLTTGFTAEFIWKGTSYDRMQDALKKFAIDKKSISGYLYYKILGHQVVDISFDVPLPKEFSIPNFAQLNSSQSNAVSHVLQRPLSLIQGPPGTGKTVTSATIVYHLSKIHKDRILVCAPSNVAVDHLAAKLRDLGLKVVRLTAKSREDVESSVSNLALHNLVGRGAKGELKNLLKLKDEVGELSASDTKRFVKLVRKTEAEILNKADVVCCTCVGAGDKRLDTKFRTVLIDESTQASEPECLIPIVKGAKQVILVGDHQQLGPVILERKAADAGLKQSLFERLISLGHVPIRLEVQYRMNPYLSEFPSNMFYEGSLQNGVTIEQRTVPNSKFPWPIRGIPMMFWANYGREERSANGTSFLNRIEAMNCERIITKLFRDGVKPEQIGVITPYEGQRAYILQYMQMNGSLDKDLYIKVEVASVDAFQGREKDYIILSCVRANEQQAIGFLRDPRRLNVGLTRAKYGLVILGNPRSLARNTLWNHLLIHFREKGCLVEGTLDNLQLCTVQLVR

T2: FITC-labeled Dcp2-UBD1 peptide (aa 456-479) (S. cerevisiae, UniProt P53550 456-479, FITC on the N-terminus)
T2 peptide (looked up): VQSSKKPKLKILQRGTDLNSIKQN

T3: FITC-labeled Dcp2-UBD2 peptide (aa 694-718) (S. cerevisiae, UniProt P53550 694-718, FITC on the N-terminus)
T3 peptide (looked up): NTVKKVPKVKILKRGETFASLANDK

T4: CBP-Upf1-FL (S. cerevisiae, UniProt P30771 1-971)
T4 sequence (looked up): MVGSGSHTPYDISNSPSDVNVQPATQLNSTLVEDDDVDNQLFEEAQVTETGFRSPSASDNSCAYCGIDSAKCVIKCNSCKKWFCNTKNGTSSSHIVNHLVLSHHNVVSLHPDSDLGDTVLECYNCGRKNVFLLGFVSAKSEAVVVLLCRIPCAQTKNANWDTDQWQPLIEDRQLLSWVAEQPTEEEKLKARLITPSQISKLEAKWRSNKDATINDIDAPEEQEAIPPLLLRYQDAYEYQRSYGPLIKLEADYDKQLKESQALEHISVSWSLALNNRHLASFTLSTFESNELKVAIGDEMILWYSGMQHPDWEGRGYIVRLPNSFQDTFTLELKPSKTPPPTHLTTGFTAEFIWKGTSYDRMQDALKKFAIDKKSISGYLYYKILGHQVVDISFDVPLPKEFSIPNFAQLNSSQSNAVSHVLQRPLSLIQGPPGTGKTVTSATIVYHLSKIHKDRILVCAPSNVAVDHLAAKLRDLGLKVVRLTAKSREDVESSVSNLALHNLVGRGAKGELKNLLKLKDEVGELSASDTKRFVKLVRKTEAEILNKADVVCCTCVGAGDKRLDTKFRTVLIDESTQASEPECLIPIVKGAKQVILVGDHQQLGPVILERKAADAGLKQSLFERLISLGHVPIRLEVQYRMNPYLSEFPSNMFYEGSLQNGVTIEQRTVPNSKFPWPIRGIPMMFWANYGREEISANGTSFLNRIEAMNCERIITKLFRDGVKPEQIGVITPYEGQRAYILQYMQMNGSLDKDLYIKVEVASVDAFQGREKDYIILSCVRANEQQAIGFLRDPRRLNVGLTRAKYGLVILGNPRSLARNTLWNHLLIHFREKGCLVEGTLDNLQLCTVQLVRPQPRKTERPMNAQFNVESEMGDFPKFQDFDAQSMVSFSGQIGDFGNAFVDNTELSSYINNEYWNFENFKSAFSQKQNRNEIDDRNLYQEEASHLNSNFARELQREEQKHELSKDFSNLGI

T5: CBP-Upf1-CH-HD (S. cerevisiae, UniProt P30771 54-851)
T5 sequence (looked up): T1 sequence (looked up) with R640I

B1: Upf2(933-1089)-His (domain or fragment, S. cerevisiae, UniProt P38798 933-1089, looked up)
chain: SDSDLEYGGDLDADRDIEMKRMYEEYERKLKDEEERKAEEELERQFQKMMQESIDARKSEKVVASKIPVISKPVSVQKPLLLKKSEEPSSSKETYEELSKPKKIAFTFLTKSGKKTQSRILQLPTDVKFVSDVLEEEEKLKTERNKIKKIVLKRSFD
B2: CBP-Upf1-CH-His (domain or fragment)
chain: SPSASDNSCAYCGIDSAKCVIKCNSCKKWFCNTKNGTSSSHIVNHLVLSHHNVVSLHPDSDLGDTVLECYNCGRKNVFLLGFVSAKSEAVVVLLCRIPCAQTKNANWDTDQWQPLIEDRQLLSWVAEQPTEEEKLKARLITPSQISKLEAKWRSNKDATINDIDAPE
B3: His-tagged Nmd4 (natural protein, S. cerevisiae, UniProt Q12129 1-218, looked up)
chain: MTQYNFIIDASAFEKGLGNIKRWCSDCTEAVTLNFYIPTFTLNELDFLQQRRKSFAARESLKFIDRLDDSKFANLKVFIEFPEVLDIILWSDVMEHNDSSGKINIAKLPKRLKNLLKSCIYKCYLEGNEGLHWFLISEDPQIREMAMQCNIPSCSIVDVDSILSKDMNDKSFRESEKFNNMMLKNGTKEESENGREIIRTNFNKTVYASRGTGELWSP

Key:
CBP-Upf1-CH-HD I693R = molecular target: T1, CBP-Upf1-CH-HD I693R; assay: pull-down
[1] = molecular target: the molecule itself; assay: SDS-PAGE band of the dimer
Upf2(933-1089)-His = molecular target: B1; assay: fluorescence polarisation
[2] = molecular target: T2, FITC-labeled Dcp2-UBD1 peptide (aa …); assay: fluorescence polarisation
[3] = molecular target: T3, FITC-labeled Dcp2-UBD2 peptide (aa …); assay: fluorescence polarisation
CBP-Upf1-FL = molecular target: T4, CBP-Upf1-FL; assay: pull-down
CBP-Upf1-CH-HD = molecular target: T5, CBP-Upf1-CH-HD; assay: native gel or EMSA

Binder: B1
- binding result (CBP-Upf1-CH-HD I693R): binds

Binder: B2
- stoichiometry N [1]: 2
- Kd (Upf2(933-1089)-His): 0.43 µM
- Kd [2]: 60.1 µM
- Kd [3]: 25.1 µM

Binder: B3
- binding result (CBP-Upf1-FL): binds
- binding result (CBP-Upf1-CH-HD): binds
